These results are taken from PMC4145800.

The target of this experiment is T1, wild-type (polymerization-competent) yeast αβ-tubulin, P09733;P02557.
T1 chain 1: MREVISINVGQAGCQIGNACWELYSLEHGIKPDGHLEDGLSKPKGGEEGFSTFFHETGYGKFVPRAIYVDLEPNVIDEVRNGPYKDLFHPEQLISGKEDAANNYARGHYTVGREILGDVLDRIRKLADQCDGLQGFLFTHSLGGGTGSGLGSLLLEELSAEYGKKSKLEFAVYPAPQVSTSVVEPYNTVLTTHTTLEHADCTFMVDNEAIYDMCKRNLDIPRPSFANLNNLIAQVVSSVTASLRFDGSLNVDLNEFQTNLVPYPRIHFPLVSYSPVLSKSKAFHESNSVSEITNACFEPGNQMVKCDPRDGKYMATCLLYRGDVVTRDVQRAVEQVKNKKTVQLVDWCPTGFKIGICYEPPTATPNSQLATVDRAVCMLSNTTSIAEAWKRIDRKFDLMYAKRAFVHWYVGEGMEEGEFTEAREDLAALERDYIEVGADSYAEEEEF
T1 chain 2: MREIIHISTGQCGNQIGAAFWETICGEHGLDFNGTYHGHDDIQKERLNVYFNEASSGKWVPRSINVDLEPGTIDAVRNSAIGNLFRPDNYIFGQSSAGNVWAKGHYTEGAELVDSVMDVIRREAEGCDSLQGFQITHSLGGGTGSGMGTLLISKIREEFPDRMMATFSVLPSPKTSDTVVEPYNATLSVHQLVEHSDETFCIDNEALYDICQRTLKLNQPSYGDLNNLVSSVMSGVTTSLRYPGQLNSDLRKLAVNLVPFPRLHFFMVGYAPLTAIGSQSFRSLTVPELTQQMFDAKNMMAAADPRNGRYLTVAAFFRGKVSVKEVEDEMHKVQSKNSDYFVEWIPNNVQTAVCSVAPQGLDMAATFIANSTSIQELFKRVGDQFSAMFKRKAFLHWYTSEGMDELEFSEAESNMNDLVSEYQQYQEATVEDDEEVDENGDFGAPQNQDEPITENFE
Description: sedimentation velocity AUC. The conditions noted are these: chain shown with the change; [TOG1-TOG2] = 1.7 µM; [αβ] = 0.35 µM.

B1: TOG1-TOG2(1-560) of Stu2p, P46675 W341A (protein)
chain: MSGEEEVDYTTLPLEERLTYKLWKARLEAYKELNQLFRNSVGDISRDDNIQIYWRDPTLFAQYITDSNVVAQEQAIVALNSLIDAFASSSLKNAHNITLISTWTPLLVEKGLTSSRATTKTQSMSCILSLCGLDTSITQSVELVIPFFEKKLPKLIAAAANCVYELMAAFGLTNVNVQTFLPELLKHVPQLAGHGDRNVRSQTMNLIVEIYKVTGNNSDLLEEILFKKLKPIQVKDLHKLFAKVGDEPSSSKMLFEWEKRELEKKRSQEEEARKRKSILSNDEGEYQIDKDGDTLMGMETDMPPSKQQSGVQIDTFSMLPEETILDKLPKDFQERITSSKAKDRVEALEEFWDSVLSQTKKLKSTSQNYSNLLGIYGHIIQKDANIQAVALAAQSVELICDKLKTPGFSKDYVSLVFTPLLDRTKEKKPSVIEAIRKALLTICKYYDPLASSGRNEDMLKDILEHMKHKTPQIRMECTQLFNASMKEEKDGYSTLQRYLKDEVVPIVIQIVNDTQPAIRTIGFESFAILIKIFGMNTFVKTLEHLDNLKRKKIEETVKTL
B1 came in with an other: sedimentation coefficient of the TOG1-TOG2:αβ-tubulin complex (s20,w) of 7.1 S.
